# Source: PMC11109247
# What was measured:
# [1] = molecular target: soluble NiVMY G ectodomain used for structural determination (residues 72-602, His tag) (Nipah virus Malaysia (NiVMY)) (UniProt Q9IH62); assay: negative-stain electron microscopy; soluble NiVMY G ectodomain alone
# [2] = molecular target: ephrinB3-Fc chimaera (human ephrin-B3 residues 28-224, IEGRMD linker, human IgG1 residues 100-330) (human) (UniProt Q15768); assay: SDS-PAGE without reduction and boiling
# [3] = molecular target: ephrinB2-Fc chimaera (human ephrin-B2 residues 1-229, IEGRMD linker, human IgG1 residues 100-330) (human) (UniProt P52799); assay: SDS-PAGE without reduction and boiling
# Sequence of soluble NiVMY G ectodomain used for structural determination (residues 72-602, His tag) (Q9IH62 72-602): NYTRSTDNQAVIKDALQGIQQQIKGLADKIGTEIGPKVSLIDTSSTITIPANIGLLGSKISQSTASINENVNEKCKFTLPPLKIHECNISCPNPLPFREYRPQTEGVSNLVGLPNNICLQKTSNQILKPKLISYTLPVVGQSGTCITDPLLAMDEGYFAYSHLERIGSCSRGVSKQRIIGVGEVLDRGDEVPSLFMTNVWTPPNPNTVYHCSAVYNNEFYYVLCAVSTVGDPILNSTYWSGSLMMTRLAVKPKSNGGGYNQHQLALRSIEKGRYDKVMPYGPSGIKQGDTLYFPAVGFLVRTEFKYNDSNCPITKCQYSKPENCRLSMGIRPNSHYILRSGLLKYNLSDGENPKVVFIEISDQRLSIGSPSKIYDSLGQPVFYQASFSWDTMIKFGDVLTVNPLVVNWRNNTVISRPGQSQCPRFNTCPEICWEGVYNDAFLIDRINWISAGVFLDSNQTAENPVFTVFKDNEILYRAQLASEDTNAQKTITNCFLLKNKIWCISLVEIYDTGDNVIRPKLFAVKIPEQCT
# Sequence of ephrinB2-Fc chimaera (human ephrin-B2 residues 1-229, IEGRMD linker, human IgG1 residues 100-330) (P52799 28-229): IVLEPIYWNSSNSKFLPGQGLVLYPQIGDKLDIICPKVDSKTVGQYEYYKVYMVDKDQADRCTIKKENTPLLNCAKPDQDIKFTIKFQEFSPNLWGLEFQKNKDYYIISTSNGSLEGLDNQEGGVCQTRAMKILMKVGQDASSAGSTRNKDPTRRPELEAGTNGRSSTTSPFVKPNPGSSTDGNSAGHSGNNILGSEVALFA
# Sequence of ephrinB3-Fc chimaera (human ephrin-B3 residues 28-224, IEGRMD linker, human IgG1 residues 100-330) (Q15768 28-224): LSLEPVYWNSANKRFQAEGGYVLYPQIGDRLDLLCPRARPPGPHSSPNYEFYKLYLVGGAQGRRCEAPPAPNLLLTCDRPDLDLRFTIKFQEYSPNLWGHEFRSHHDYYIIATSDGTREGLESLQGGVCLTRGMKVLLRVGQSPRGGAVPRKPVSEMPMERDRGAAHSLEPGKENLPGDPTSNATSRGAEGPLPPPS
substance,measurement,setting,value
"soluble NiVMY G ectodomain used for structural determination (residues 72-602, His tag) (from UniProt Q9IH62 72-602) (domain or fragment)",stoichiometry N,[1],4
"ephrinB3-Fc chimaera (human ephrin-B3 residues 28-224, IEGRMD linker, human IgG1 residues 100-330) (from UniProt Q15768 28-224) (Fc fusion)",stoichiometry N,[2],2
"ephrinB2-Fc chimaera (human ephrin-B2 residues 1-229, IEGRMD linker, human IgG1 residues 100-330) (from UniProt P52799 28-229) (Fc fusion)",stoichiometry N,[3],2
